Experimental data taken from FireProtDB.

B1: Ribonuclease HI, P0A7Y4 (parent)
chain: MLKQVEIFTDGSCLGNPGPGGYGAILRYRGREKTFSAGYTRTTNNRMELMAAIVALEALKEHCEVILSTDSQYVRQGITQWIHNWKKRGWKTADKKPVKNVDLWQRLDAALGQHQIKWEWVKGHAGHPENERCDELARAAAMNPTLEDTGYQVEV

Variants of: B1
Conditions: Escherichia coli (strain K12); pH 3; 49.8 °C; Thermal; CD; glycine-HCl 10 mM; reversible: yes; structure 2RN2; whole UniProt chain shown

Row | Variant | ddG of mutation (higher = less stable) [kcal/mol]
1 | MLKQVEIFTDGSCLGNPGPGGYGAILRYRGREKTFSAGYTRTTNNRMELMAAIVALEALKEHCEVILSTDSQYVRQGITQWIHNWKKRGWKTADAKPVKNVDLWQRLDAALGQHQIKWEWVKGHAGHPENERCDELARAAAMNPTLEDTGYQVEV | -0.1
2 | MLKQVEIFTDGSCLGNPGPGGYGAILRYRGREKTFSAGYTRTTNNRMELMAAIVALEALKEHCEVILSTDSQYVRQGITQWIHNWKKRGWKTADNKPVKNVDLWQRLDAALGQHQIKWEWVKGHAGHPENERCDELARAAAMNPTLEDTGYQVEV | -0.9
3 | MLKQVEIFTDGSCLGNPGPGGYGAILRYRGREKTFSAGYTRTTNNRMELMAAIVALEALKEHCEVILSTDSQYVRQGITQWIHNWKKRGWKTADKKPVKNVDLWQRLDAALGPHQIKWEWVKGHAGHPENERCDELARAAAMNPTLEDTGYQVEV | 0.2
4 | MLKQVEIFTDGSCLGNPGPGGYGAILRYRGREKTFSAGYTRTTNNRMELMAAIVALEALKEHCEVILSTDSQYVRQGITQWIHNWKKRGWKTADKKPVKNVDLWQRLDAALGQHQIKWEWVKGHTGHPENERCDELARAAAMNPTLEDTGYQVEV | -0.1

Same assay, conditions: Escherichia coli (strain K12); pH 5.5; 49.8 °C; Thermal; CD; Sodium acetate 20 mM; reversible: yes; structure 2RN2; whole UniProt chain shown

Row | Variant | ddG of mutation (higher = less stable) [kcal/mol]
5 | MLKQVEIFTDGSCLGNPGPGGYGAILRYRGREKTFSAGYTRTTNNRMELMAAIVALEALKEHCEVILSTDSQYVRQGITQWIHNWKKRGWKTADAKPVKNVDLWQRLDAALGQHQIKWEWVKGHAGHPENERCDELARAAAMNPTLEDTGYQVEV | -0.1
6 | MLKQVEIFTDGSCLGNPGPGGYGAILRYRGREKTFSAGYTRTTNNRMELMAAIVALEALKEHCEVILSTDSQYVRQGITQWIHNWKKRGWKTADNKPVKNVDLWQRLDAALGQHQIKWEWVKGHAGHPENERCDELARAAAMNPTLEDTGYQVEV | -0.9

Same assay, conditions: Escherichia coli (strain K12); pH 5.5; Thermal; CD; Sodium acetate 20 mM; reversible: yes; structure 2RN2; whole UniProt chain shown

Row | Variant | Tm [°C] | change of melting temperature, mutant - wild type (higher = more stable) [°C] | unfolding enthalpy (van 't Hoff) [kcal/mol]
7 | MLKQVEIFTDGSCLGNPGPGGYGAILRYRGREKTFSAGYTRTTNNRMELMAAIVALEALKEHCEVILSTDSQYVRQGITQWIHNWKKRGWKTADAKPVKNVDLWQRLDAALGQHQIKWEWVKGHAGHPENERCDELARAAAMNPTLEDTGYQVEV | 52 | 0.4 | 96.4
8 | MLKQVEIFTDGSCLGNPGPGGYGAILRYRGREKTFSAGYTRTTNNRMELMAAIVALEALKEHCEVILSTDSQYVRQGITQWIHNWKKRGWKTADNKPVKNVDLWQRLDAALGQHQIKWEWVKGHAGHPENERCDELARAAAMNPTLEDTGYQVEV | 52 | 3.2 | 90
9 | MLKQVEIFTDGSCLGNPGPGGYGAILRYRGREKTFSAGYTRTTNNRMELMAAIVALEALKEHCEVILSTDSQYVRQGITQWIHNWKKRGWKTADKKPVKNVDLWQRLDAALGPHQIKWEWVKGHAGHPENERCDELARAAAMNPTLEDTGYQVEV | 49.9 | -2.1 | 81

Same assay, conditions: Escherichia coli (strain K12); pH 3; 50.1 °C; Thermal; CD; glycine-HCl 10 mM; NaCl 0.1 M; reversible: yes; structure 2RN2; whole UniProt chain shown

Row | Variant | ddG of mutation (higher = less stable) [kcal/mol]
10 | MLKQVEIFTDGSCLGNPGPGGYGAILRYRGREKTFSAGYTRTTNNRMELMAAIVALEALKEHCEVILSTDSQYVRQGITQWIHNWKKRGWKTADNKPVKNVDLWQRLDAALGQHQIKWEWVKGHAGHPENERCDELARAAAMNPTLEDTGYQVEV | -0.88

Same assay, conditions: Escherichia coli (strain K12); pH 3; Thermal; CD; glycine-HCl 10 mM; NaCl 0.1 M; reversible: yes; structure 2RN2; whole UniProt chain shown

Row | Variant | Tm [°C] | change of melting temperature, mutant - wild type (higher = more stable) [°C] | unfolding enthalpy (van 't Hoff) [kcal/mol]
11 | MLKQVEIFTDGSCLGNPGPGGYGAILRYRGREKTFSAGYTRTTNNRMELMAAIVALEALKEHCEVILSTDSQYVRQGITQWIHNWKKRGWKTADNKPVKNVDLWQRLDAALGQHQIKWEWVKGHAGHPENERCDELARAAAMNPTLEDTGYQVEV | 53 | 2.9 | 109

Same assay, conditions: Escherichia coli (strain K12); pH 3; Thermal; CD; glycine-HCl 10 mM; reversible: yes; structure 2RN2; whole UniProt chain shown

Row | Variant | Tm [°C] | change of melting temperature, mutant - wild type (higher = more stable) [°C] | unfolding enthalpy (van 't Hoff) [kcal/mol]
12 | MLKQVEIFTDGSCLGNPGPGGYGAILRYRGREKTFSAGYTRTTNNRMELMAAIVALEALKEHCEVILSTDSQYVRQGITQWIHNWKKRGWKTADNKPVKNVDLWQRLDAALGQHQIKWEWVKGHAGHPENERCDELARAAAMNPTLEDTGYQVEV | 49.8 | 2.9 | 109
13 | MLKQVEIFTDGSCLGNPGPGGYGAILRYRGREKTFSAGYTRTTNNRMELMAAIVALEALKEHCEVILSTDSQYVRQGITQWIHNWKKRGWKTADKKPVKNVDLWQRLDAALGPHQIKWEWVKGHAGHPENERCDELARAAAMNPTLEDTGYQVEV | 49.2 | -0.6 | 100
14 | MLKQVEIFTDGSCLGNPGPGGYGAILRYRGREKTFSAGYTRTTNNRMELMAAIVALEALKEHCEVILSTDSQYVRQGITQWIHNWKKRGWKTADKKPVKNVDLWQRLDAALGQHQIKWEWVKGHTGHPENERCDELARAAAMNPTLEDTGYQVEV | 50.2 | 0.4 | 96.4

Same assay, conditions: Escherichia coli (strain K12); pH 5.5; 52.7 °C; Thermal; CD; Sodium acetate 20 mM; NaCl 0.1 M; reversible: yes; structure 2RN2; whole UniProt chain shown

Row | Variant | ddG of mutation (higher = less stable) [kcal/mol]
15 | MLKQVEIFTDGSCLGNPGPGGYGAILRYRGREKTFSAGYTRTTNNRMELMAAIVALEALKEHCEVILSTDSQYVRQGITQWIHNWKKRGWKTADNKPVKNVDLWQRLDAALGQHQIKWEWVKGHAGHPENERCDELARAAAMNPTLEDTGYQVEV | -0.88

Same assay, conditions: Escherichia coli (strain K12); pH 5.5; 52 °C; Thermal; CD; Sodium acetate 20 mM; reversible: yes; structure 2RN2; whole UniProt chain shown

Row | Variant | ddG of mutation (higher = less stable) [kcal/mol]
16 | MLKQVEIFTDGSCLGNPGPGGYGAILRYRGREKTFSAGYTRTTNNRMELMAAIVALEALKEHCEVILSTDSQYVRQGITQWIHNWKKRGWKTADKKPVKNVDLWQRLDAALGPHQIKWEWVKGHAGHPENERCDELARAAAMNPTLEDTGYQVEV | 0.6

Same assay, conditions: Escherichia coli (strain K12); pH 5.5; 52 °C; Thermal; CD; glycine-HCl 10 mM; reversible: yes; structure 2RN2; whole UniProt chain shown

Row | Variant | ddG of mutation (higher = less stable) [kcal/mol]
17 | MLKQVEIFTDGSCLGNPGPGGYGAILRYRGREKTFSAGYTRTTNNRMELMAAIVALEALKEHCEVILSTDSQYVRQGITQWIHNWKKRGWKTADKKPVKNVDLWQRLDAALGQHQIKWEWVKGHTGHPENERCDELARAAAMNPTLEDTGYQVEV | 0

Same assay, conditions: Escherichia coli (strain K12); pH 5.5; Thermal; CD; glycine-HCl 10 mM; reversible: yes; structure 2RN2; whole UniProt chain shown

Row | Variant | Tm [°C] | change of melting temperature, mutant - wild type (higher = more stable) [°C] | unfolding enthalpy (van 't Hoff) [kcal/mol]
18 | MLKQVEIFTDGSCLGNPGPGGYGAILRYRGREKTFSAGYTRTTNNRMELMAAIVALEALKEHCEVILSTDSQYVRQGITQWIHNWKKRGWKTADKKPVKNVDLWQRLDAALGQHQIKWEWVKGHTGHPENERCDELARAAAMNPTLEDTGYQVEV | 52 | 0 | 88.8
